Blank lines part the entries; values can stand above or below the binder they belong to.
Experiments:
[1] = target: T1, Human ALPP (leucine zipper) (human); experiment: BLI, antigen immobilised
T1 construct: Whole entry: ALPP fused with a cysteine stabilised leucine zipper and His tag; also called hALPP
T1 chain: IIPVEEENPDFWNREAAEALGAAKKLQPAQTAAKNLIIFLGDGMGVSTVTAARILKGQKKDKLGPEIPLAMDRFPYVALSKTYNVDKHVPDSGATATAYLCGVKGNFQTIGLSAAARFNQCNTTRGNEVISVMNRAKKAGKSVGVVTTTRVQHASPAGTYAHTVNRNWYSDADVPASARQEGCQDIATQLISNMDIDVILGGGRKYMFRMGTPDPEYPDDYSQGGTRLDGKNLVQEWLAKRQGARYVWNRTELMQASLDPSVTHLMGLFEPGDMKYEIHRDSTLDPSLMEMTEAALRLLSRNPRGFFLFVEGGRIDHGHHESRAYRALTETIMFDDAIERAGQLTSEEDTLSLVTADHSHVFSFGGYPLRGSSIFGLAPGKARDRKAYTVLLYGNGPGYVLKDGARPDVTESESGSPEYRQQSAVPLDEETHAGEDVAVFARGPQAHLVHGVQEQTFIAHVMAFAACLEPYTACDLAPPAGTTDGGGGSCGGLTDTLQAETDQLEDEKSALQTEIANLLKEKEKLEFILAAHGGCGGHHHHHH
Protocol: (§1) Binding kinetics were determined using the Biolayer Interferometry (BLI) Octet K2 system (Sartorius). […] All assays were conducted in PBS with a plate temperature of 25° C. Ka (M⁻¹s⁻¹), Kd (s⁻¹) and KD (nM) values were determined using Octet Data Analysis High Throughput software (ForteBio) for Biolayer Interferometry.

[2] = target: T2, Human ALPPL2 (leucine zipper) (human); experiment: BLI, antigen immobilised
T2 construct: Whole entry: fused with a cysteine stabilised leucine zipper and His tag; also called hALPPL2
T2 chain: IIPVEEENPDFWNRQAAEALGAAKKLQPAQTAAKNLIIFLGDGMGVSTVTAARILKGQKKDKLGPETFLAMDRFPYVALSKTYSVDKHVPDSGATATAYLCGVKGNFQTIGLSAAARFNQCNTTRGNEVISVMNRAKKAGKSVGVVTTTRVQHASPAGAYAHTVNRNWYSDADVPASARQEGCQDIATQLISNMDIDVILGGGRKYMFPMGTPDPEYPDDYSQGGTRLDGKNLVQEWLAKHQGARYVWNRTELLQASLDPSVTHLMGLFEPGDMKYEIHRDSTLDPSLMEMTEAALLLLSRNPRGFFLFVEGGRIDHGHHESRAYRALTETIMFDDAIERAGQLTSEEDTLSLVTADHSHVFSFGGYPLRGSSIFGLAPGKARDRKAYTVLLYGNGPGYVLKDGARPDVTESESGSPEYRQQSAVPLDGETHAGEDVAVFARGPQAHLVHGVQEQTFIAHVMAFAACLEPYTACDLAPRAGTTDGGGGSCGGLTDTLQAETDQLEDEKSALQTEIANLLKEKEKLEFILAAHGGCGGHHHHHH
Protocol: as §1

human ALPP on CHO cells [3] = target: T3, human ALPP on CHO cells (human, UniProt P05187 23-506); experiment: flow cytometry, CHO cells, KDapp
T3 construct: whole, on cells; also called CHO-ALPP
Protocol: (§2) Cell surface binding of test agents to hALPP isoforms was characterized in four CHO-ALPP isoform stably transfected cell lines (CHO-ALPP, CHO-ALPPL2, CHO-ALPI and CHO-ALPL) and the resulting KDapp values determined. Adherent cells were detached from tissue culture flasks by incubating with 0.1% EDTA/PBS solution at 37° C. for ~10 minutes or until cells detached easily. Cells were re-suspended in ice-cold PBS/2% FCS in 15 ml tubes and centrifuged at 1700 rpm for 5 mins at 4° C. Supernatant was removed and the cell pellet re-suspended in PBS/2% FCS. […] Cells were incubated with 100 μl of test agents at a range of concentrations, plus controls for 1 hr on ice. The sample plate was centrifuged at 1700 rpm for 5 mins at 4° C. The supernatant was removed, and a wash performed by re-suspending the cell pellets in 0.25 mL of ice-cold PBS/2% FCS using a multichannel pipette. Samples were again centrifuged at 1700 rpm for 5 min at 4° C. Supernatant was removed and two further washes performed as described. After the final wash and centrifugation step, excess liquid was removed by blotting the plate on tissue paper. Binding of VHH (His6 tagged) agents was determined by adding 100 μl of anti-x6His tag Ab (Abcam) per cell pellet sample as appropriate and incubating on ice for 30 mins. Wash steps were performed as described previously. Fitc-anti-mouse antibody (ThermoFisher) was used to detect binding of the VHH (His6 tagged) agents by incubating with the appropriate samples for 30 min on ice in the dark. Wash steps were performed as described previously. All cell pellets were finally re-suspended in […] of ice-cold PBS/2% FCS and left on ice in the dark prior to analysis on a Merck-Millipore Guava EasyCyte HT or Thermo Fisher Attune N×T flow cytometer.

[4] = target: T4, human ALPPL2 on CHO cells (human, UniProt P10696 20-503); experiment: flow cytometry, CHO cells, KDapp
T4 construct: whole, on cells; also called CHO-ALPPL2
Protocol: as §2

human ALPP on CHO cells [5] = target: T3, human ALPP on CHO cells; experiment: flow cytometry, CHO cells stably expressing human ALPP; His6-tagged VHH detected with anti-His tag Ab and FITC anti-mouse Ab
Protocol: (§3) C-terminal His tagged VHH proteins were assessed for ALPP, ALPPL2, ALPI and ALPL cell-surface binding by flow cytometry. Binders encompassing different epitope bins were screened on CHO cells stably expressing ALPP, ALPPL2, ALPI or ALPL. High levels of cell-surface proteins expression were confirmed for each of the cell-lines by flow cytometry.
(§4) Cell surface binding of test agents to hALPP isoforms was characterized in four CHO-ALPP isoform stably transfected cell lines (CHO-ALPP, CHO-ALPPL2, CHO-ALPI and CHO-ALPL) and the resulting KDapp values determined. Adherent cells were detached from tissue culture flasks by incubating with 0.1% EDTA/PBS solution at 37° C. for ~10 minutes or until cells detached easily. Cells were re-suspended in ice-cold PBS/2% FCS in 15 ml tubes and centrifuged at 1700 rpm for 5 mins at 4° C. Supernatant was removed and the cell pellet re-suspended in PBS/2% FCS. […] Cells were incubated with 100 μl of test agents at a range of concentrations, plus controls for 1 hr on ice. The sample plate was centrifuged at 1700 rpm for 5 mins at 4° C. The supernatant was removed, and a wash performed by re-suspending the cell pellets in 0.25 mL of ice-cold PBS/2% FCS using a multichannel pipette. […] Binding of VHH (His6 tagged) agents was determined by adding 100 μl of anti-x6His tag Ab (Abcam) per cell pellet sample as appropriate and incubating on ice for 30 mins. […]

[6] = target: T4, human ALPPL2 on CHO cells; experiment: flow cytometry, CHO cells stably expressing human ALPPL2; His6-tagged VHH detected with anti-His tag Ab and FITC anti-mouse Ab
Protocol: as §3, §4

human ALPL on CHO cells = target: T5, human ALPL on CHO cells (human, UniProt P05186 18-501); experiment: flow cytometry, CHO cells stably expressing human ALPL; PDC detected with FITC anti-human Ab
T5 construct: whole, on cells; also called CHO-ALPL
T5 sequence (looked up): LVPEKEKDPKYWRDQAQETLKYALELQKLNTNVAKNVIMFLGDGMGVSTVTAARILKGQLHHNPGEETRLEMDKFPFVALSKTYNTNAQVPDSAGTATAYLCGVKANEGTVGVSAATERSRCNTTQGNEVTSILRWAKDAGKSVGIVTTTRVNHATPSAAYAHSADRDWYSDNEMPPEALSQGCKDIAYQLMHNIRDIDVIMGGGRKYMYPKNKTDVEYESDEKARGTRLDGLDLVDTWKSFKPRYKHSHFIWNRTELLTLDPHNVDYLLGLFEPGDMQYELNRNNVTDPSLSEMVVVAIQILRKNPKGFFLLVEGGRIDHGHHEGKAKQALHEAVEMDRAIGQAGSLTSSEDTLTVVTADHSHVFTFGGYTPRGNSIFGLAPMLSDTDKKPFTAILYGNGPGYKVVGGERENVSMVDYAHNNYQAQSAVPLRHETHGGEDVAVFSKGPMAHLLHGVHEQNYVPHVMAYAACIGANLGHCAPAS
Outline: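 Cell-surface binding to CHO cells stably transfected with human ALPP, ALPPL2, ALPI or ALPL; cells detached with 0.1% EDTA/PBS, incubated with biparatopic VHH-hFc drug conjugates over a concentration range for 1 hr on ice. Bound agent detected with FITC anti-human Ab (30 min, ice, dark) by flow cytometry; KDapp derived from binding.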

[7] = target: T4, human ALPPL2 on CHO cells; experiment: flow cytometry, CHO cells stably expressing human ALPPL2; PDC detected with FITC anti-human Ab
Protocol: (§5) Biparatopic VHH-hFc drug conjugates were assessed for human ALPP, ALPPL2, ALPI and ALPL cell-surface binding by flow cytometry. Binders were screened on CHO cells stably expressing human ALPP, ALPPL2, ALPI or ALPL.
(§6) Cell surface binding of test agents to hALPP isoforms was characterized in four CHO-ALPP isoform transfectant cell lines (CHO-ALPP, CHO-ALPPL2, CHO-ALPI and CHO-ALPL) and the resulting KDapp values determined. Adherent cells were detached from tissue culture flasks by incubating with 0.1% EDTA/PBS solution at 37° C. for […] or until cells detached easily. Cells were re-suspended in ice-cold PBS/2% FCS in 15 ml tubes and centrifuged at 1700 rpm for 5 mins at 4° C. Supernatant was removed and the cell pellet re-suspended in PBS/2% FCS. […] Cells were incubated with 100 μl of test agents at a range of concentrations, plus controls for 1 hr on ice. The sample plate was centrifuged at 1700 rpm for 5 mins at 4° C. The supernatant was removed, and a wash performed by re-suspending the cell pellets in 0.25 mL of ice-cold PBS/2% FCS using a multichannel pipette. Samples were again centrifuged at 1700 rpm for 5 min at 4° C. Supernatant was removed and two further washes performed as described. […] Binding of VHH-hFc agents was determined by adding 100 μl of Fitc-anti-human Ab (ThermoFisher) and incubating for 30 mins on ice in the dark. […]

human ALPP on CHO cells [8] = target: T3, human ALPP on CHO cells; experiment: flow cytometry, CHO cells stably expressing human ALPP; PDC detected with FITC anti-human Ab
Protocol: as §5, §6

Kd [1]: 1.18 nM
koff [1]: 0.000191 s⁻¹
kon [1]: 162000 M⁻¹ s⁻¹
Kd [2]: 0.29 nM
koff [2]: 0.00014 s⁻¹
kon [2]: 482000 M⁻¹ s⁻¹
Kd (human ALPP on CHO cells [3]): 5.3 nM
Kd [4]: 5 nM
EC50 (read off the curve) (human ALPP on CHO cells [5]): ~5 nM
EC50 (read off the curve) [6]: ~5 nM
B1: B01 His (VHH, not shown: small tags and cut ends)
VHH: QVQLVESGGGLVQAGGSLRLSCEVTRSPMPIDTMAWYRQAPGRQRELVAIISRSGSTNYADSVKGRFTISRNDTKSTMYKSTMYLKMNTLELEDTGVYYCNAVGLWNGAEYWGQGTQVTVSS

binding result (human ALPL on CHO cells): no binding (tested: 350 nM)
EC50 (read off the curve) [7]: ~5 nM
B2: D10-A06 hFc-vcPAB-MMAE [G4S]3 (Fc fusion, DAR 4)
chain 1: QVQLVESGGGLVQPGGSLRLSCAASGSIFSVNTMGWYRQAPGKQRDLVAVATSGGTIHYADSVKGRFTISRDNAKNTVYLQMNSLKPEDTAVYYCNLVVPYGMIAGDHDYWGQGTKVTVSSGGGGSGGGGSGGGGSEPKSSDKTHTCPPCPAPELLGGPCVFLFPPKPKDTLMISRTPEVTCVVVDVSHEDPEVKFNWYVDGVEVHNAKTKPREEQYNSTYRVVSVLTVLHQDWLNGKEYKCKVSNKALPAPIEKTISKAKGQPREPQVYTLPPSRDELTKNQVSLYCLVKGFYPSDIAVEWESNGQPENNYKTTPPVLDSDGSFFLYSKLTVDKSRWQQGNVFSCSVMHEALHNHYTQKSLCLSPGK
chain 2: QVHLVESGGGLVQAGGSLRLSCAASGRTFLSMGWFRQAPGKEREFVAAISWTGGSTGYADSVKGRFTISRESDKETMYLQMNSLKPEDTAVYYCAARGDVYYGGDDATRYKYWGQGTQVTVSSGGGGSGGGGSGGGGSEPKSSDKTHTCPPCPAPELLGGPCVFLFPPKPKDTLMISRTPEVTCVVVDVSHEDPEVKFNWYVDGVEVHNAKTKPREEQYNSTYRVVSVLTVLHQDWLNGKEYKCKVSNKALPAPIEKTISKAKGQPREPQVYTLPPSRDELTKNQVSLTCLVKGFYPSDIAVEWESNGQPENNYKTTPPVLDSDGSFFLTSKLTVDKSRWQQGNVFSCSVMHEALHNHYTQKSLCLSPGK
modifications: MC-vc-PAB-MMAE on Cys 239 and Cys 442 (EU numbering)
notes: Biparatopic drug conjugate, DAR 4; also called #633

binding result (human ALPL on CHO cells): no binding (tested: 350 nM)
EC50 (read off the curve) (human ALPP on CHO cells [8]): 10 to 22 nM
B3: D10-A06-hFc-vcPAB-MMAE [G4S]1 (Fc fusion, DAR 4)
chain 1: QVQLVESGGGLVQPGGSLRLSCAASGSIFSVNTMGWYRQAPGKQRDLVAVATSGGTIHYADSVKGRFTISRDNAKNTVYLQMNSLKPEDTAVYYCNLVVPYGMIAGDHDYWGQGTKVTVSSGGGGSEPKSSDKTHTCPPCPAPELLGGPCVFLFPPKPKDTLMISRTPEVTCVVVDVSHEDPEVKFNWYVDGVEVHNAKTKPREEQYNSTYRVVSVLTVLHQDWLNGKEYKCKVSNKALPAPIEKTISKAKGQPREPQVYTLPPSRDELTKNQVSLYCLVKGFYPSDIAVEWESNGQPENNYKTTPPVLDSDGSFFLYSKLTVDKSRWQQGNVFSCSVMHEALHNHYTQKSLCLSPGK
chain 2: QVHLVESGGGLVQAGGSLRLSCAASGRTFLSMGWFRQAPGKEREFVAAISWTGGSTGYADSVKGRFTISRESDKETMYLQMNSLKPEDTAVYYCAARGDVYYGGDDATRYKYWGQGTQVTVSSGGGGSEPKSSDKTHTCPPCPAPELLGGPCVFLFPPKPKDTLMISRTPEVTCVVVDVSHEDPEVKFNWYVDGVEVHNAKTKPREEQYNSTYRVVSVLTVLHQDWLNGKEYKCKVSNKALPAPIEKTISKAKGQPREPQVYTLPPSRDELTKNQVSLTCLVKGFYPSDIAVEWESNGQPENNYKTTPPVLDSDGSFFLTSKLTVDKSRWQQGNVFSCSVMHEALHNHYTQKSLCLSPGK
modifications: MC-vc-PAB-MMAE on Cys 239 and Cys 442 (EU numbering)
notes: Biparatopic drug conjugate, DAR 4; also called #676

— US20260216242A1 (ALMAC DISCOVERY, published 2026)
